The target of test [1] is CD19 on CD19+ Raji B cells (UniProt P15391). Description: cell-based or functional assay.
Test [2] shares this target. Description: cell-based or functional assay. This is another data set of the same source.

Like-named read-outs stand apart in the source and are kept apart here.

Sequence of UniProt P15391 (P15391 20-556 limits assumed): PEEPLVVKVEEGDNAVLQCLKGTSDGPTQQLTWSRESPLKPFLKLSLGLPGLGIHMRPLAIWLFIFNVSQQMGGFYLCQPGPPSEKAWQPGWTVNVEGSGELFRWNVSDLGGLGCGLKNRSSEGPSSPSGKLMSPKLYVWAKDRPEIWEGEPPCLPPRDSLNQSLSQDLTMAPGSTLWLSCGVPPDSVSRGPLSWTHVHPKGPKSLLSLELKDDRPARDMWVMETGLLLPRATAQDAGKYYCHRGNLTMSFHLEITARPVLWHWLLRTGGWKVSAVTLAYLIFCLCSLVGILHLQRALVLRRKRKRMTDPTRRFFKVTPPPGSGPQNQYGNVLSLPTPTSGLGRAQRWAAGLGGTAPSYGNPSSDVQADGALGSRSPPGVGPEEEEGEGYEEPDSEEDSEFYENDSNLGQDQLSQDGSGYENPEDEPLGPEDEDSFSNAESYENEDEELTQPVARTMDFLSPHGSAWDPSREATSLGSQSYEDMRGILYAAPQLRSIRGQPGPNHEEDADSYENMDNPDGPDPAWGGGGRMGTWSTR

Turning to “anti-CD19 CAR (anti-CD19 CAR cassette as described in WO 2012/079000) (receptor)”, the activated cells in the population (CD25 and CD69 activation markers, flow cytometry, 24h co-culture) was 3.9 to 12.1% in test [1] and 0.9 to 84.8% in test [2].
